{"source": "paper PMC7095019", "about": "(Nature, 2012)"}
{"target": "H1 A/New Caledonia/20/1999 haemagglutinin, wild-type trimeric protein (Influenza A virus A/New …, UniProt Q6WG00, strain)", "assay": "ELISA", "units": {"ELISA endpoint dilution titre": "µg/mL"}}
{"binder": "CR6261 germline variant sCDR H2/sCDR H3, soluble IgG (antibody, V domains shown) VH: QVQLVQSGAEVKKPGSSVKVSCKASGGTFSSYAISWVRQAPGQGLEWMGGIIPIFGTTKYAPKFQGRVTITADESTSTAYMELSSLRSEDTAVYYCAKHMGYQVRETMDVWGKGTTVTVSS VL: QSVLTQPPSVSAAPGQKVTISCSGSSSNIGNNYVSWYQQLPGTAPKLLIYDNNKRPSGIPDRFSGSKSGTSATLGITGLQTGDEADYYCGTWDSSLSAYVVFGGGTKLTVL", "ELISA endpoint dilution titre": 0.15}
{"binder": "CR6261 germline variant sCDR H1/sFR3, soluble IgG (antibody, V domains shown) VH: QVQLVQSGAEVKKPGSSVKVSCKASGGPFRSYAISWVRQAPGQGLEWMGGIIPIFGTANYAQKFQGRVTITADDFAGTVYMELSSLRSEDTAVYYCAKHMGYQLRETMDVWGKGTTVTVSS VL: QSVLTQPPSVSAAPGQKVTISCSGSSSNIGNNYVSWYQQLPGTAPKLLIYDNNKRPSGIPDRFSGSKSGTSATLGITGLQTGDEADYYCGTWDSSLSAYVVFGGGTKLTVL", "ELISA endpoint dilution titre": 0.00133}
{"binder": "CR6261 germline variant sCDR H1/sCDR H2, soluble IgG (antibody, V domains shown) VH: QVQLVQSGAEVKKPGSSVKVSCKASGGPFRSYAISWVRQAPGQGLEWMGGIIPIFGTTKYAPKFQGRVTITADESTSTAYMELSSLRSEDTAVYYCAKHMGYQLRETMDVWGKGTTVTVSS VL: QSVLTQPPSVSAAPGQKVTISCSGSSSNIGNNYVSWYQQLPGTAPKLLIYDNNKRPSGIPDRFSGSKSGTSATLGITGLQTGDEADYYCGTWDSSLSAYVVFGGGTKLTVL", "ELISA endpoint dilution titre": 0.15}
{"binder": "CR6261 germline variant sCDR H1/sCDR H2/sFR3, soluble IgG (antibody, V domains shown) VH: QVQLVQSGAEVKKPGSSVKVSCKASGGPFRSYAISWVRQAPGQGLEWMGGIIPIFGTTKYAPKFQGRVTITADDFAGTVYMELSSLRSEDTAVYYCAKHMGYQLRETMDVWGKGTTVTVSS VL: QSVLTQPPSVSAAPGQKVTISCSGSSSNIGNNYVSWYQQLPGTAPKLLIYDNNKRPSGIPDRFSGSKSGTSATLGITGLQTGDEADYYCGTWDSSLSAYVVFGGGTKLTVL", "ELISA endpoint dilution titre": 0.00133}
{"binder": "CR6261 germline variant sFR3/sCDR H3, soluble IgG (antibody, V domains shown) VH: QVQLVQSGAEVKKPGSSVKVSCKASGGTFSSYAISWVRQAPGQGLEWMGGIIPIFGTANYAQKFQGRVTITADDFAGTVYMELSSLRSEDTAVYYCAKHMGYQVRETMDVWGKGTTVTVSS VL: QSVLTQPPSVSAAPGQKVTISCSGSSSNIGNNYVSWYQQLPGTAPKLLIYDNNKRPSGIPDRFSGSKSGTSATLGITGLQTGDEADYYCGTWDSSLSAYVVFGGGTKLTVL", "ELISA endpoint dilution titre": "> 100", "binding result": "no binding (tested: >100 µg ml^-1)"}
{"binder": "CR6261 germline variant sCDR H2, soluble IgG (antibody, V domains shown) VH: QVQLVQSGAEVKKPGSSVKVSCKASGGTFSSYAISWVRQAPGQGLEWMGGIIPIFGTTKYAPKFQGRVTITADESTSTAYMELSSLRSEDTAVYYCAKHMGYQLRETMDVWGKGTTVTVSS VL: QSVLTQPPSVSAAPGQKVTISCSGSSSNIGNNYVSWYQQLPGTAPKLLIYDNNKRPSGIPDRFSGSKSGTSATLGITGLQTGDEADYYCGTWDSSLSAYVVFGGGTKLTVL", "ELISA endpoint dilution titre": "> 100", "binding result": "no binding (tested: >100 µg ml^-1)"}
{"binder": "CR6261 germline variant sCDR H3, soluble IgG (antibody, V domains shown) VH: QVQLVQSGAEVKKPGSSVKVSCKASGGTFSSYAISWVRQAPGQGLEWMGGIIPIFGTANYAQKFQGRVTITADESTSTAYMELSSLRSEDTAVYYCAKHMGYQVRETMDVWGKGTTVTVSS VL: QSVLTQPPSVSAAPGQKVTISCSGSSSNIGNNYVSWYQQLPGTAPKLLIYDNNKRPSGIPDRFSGSKSGTSATLGITGLQTGDEADYYCGTWDSSLSAYVVFGGGTKLTVL", "ELISA endpoint dilution titre": "> 100", "binding result": "no binding (tested: >100 µg ml^-1)"}
{"binder": "CR6261 germline variant sCDR H1, soluble IgG (antibody, V domains shown) VH: QVQLVQSGAEVKKPGSSVKVSCKASGGPFRSYAISWVRQAPGQGLEWMGGIIPIFGTANYAQKFQGRVTITADESTSTAYMELSSLRSEDTAVYYCAKHMGYQLRETMDVWGKGTTVTVSS VL: QSVLTQPPSVSAAPGQKVTISCSGSSSNIGNNYVSWYQQLPGTAPKLLIYDNNKRPSGIPDRFSGSKSGTSATLGITGLQTGDEADYYCGTWDSSLSAYVVFGGGTKLTVL", "ELISA endpoint dilution titre": 0.15}
